What was measured:
[1] = Aggregation tendency assessed by turbidity of the solution (absorbance difference at 400 nm); format: physicochemical; settings: 0 to 0.1 A non-aggregated, above 0.3 aggregated
Method: The tendency of modified insulin to aggregate was assessed by measuring the turbidity of the solution. This method is based on the work of Leach and Scheraga (S. J. Leach and H. A. Scheraga (1964) J. Amer. Chem. Soc. 82, 4790-4792) who stated that absorbancy observed in insulin solutions between 350 and 600 nm is due to light scattering of aggregated particles. Briefly, 10 mg of sample was dissolved in 2 ml of isotonic phosphate buffered saline (PBS) and the solution was passed 50 times through a 3 cc plastic syringe (B-D Plastipak, Luer Lok Type) equipped with a 26G 3/8" hypodermic needle. After deaeration under vacuo for 60 min. 1 ml of this solution was diluted with 1 ml of PBS, and the turbidity was measured on a Hewlett Packard spectrophotometer type HP 8590, utilizing as a blank a non-aggregated sample diluted by 1 volume of 8M guanidine hydrochloride. Aggregation was measured by the difference in absorbance determined at 400 nm for the two samples. Non-aggregated samples gave absorbance values of 0 to 0.1 Absorbance Unit(A), Values above 0.3 were considered to be aggregated. Utilizing this assay the turbidity of this modified insulin dissolved in PBS was 0.08 A. In contrast unmodified porcine sodium insulin dissolved in distilled water has an absorbance of 0.51 A when treated according to the above procedure.

[2] = Hypoglycemic potency (United States Pharmacopeia method); format: in vivo; settings: relative to unmodified insulin; USP Vol. 18 method
Method: Hypoglycemic potency of the modified insulin was measured as described in "The United States Pharmacopeia", Mark Publishing Co., Vol. 18, pp. 883-884 (1964). Bioactivity was 62% as compared to unmodified insulin.

| Substance | Turbidity (difference in absorbance at 400 nm) ([1]; dissolved in PBS, passed 50 times through a 26G needle) | Bioactivity as compared to unmodified insulin (hypoglycemic potency) [2] | Turbidity (difference in absorbance at 400 nm) ([1]; dissolved in distilled water, treated according to the same procedure) |
| --- | --- | --- | --- |
| Example 1: porcine sodium insulin sulphated with sulfuric acid and N,N' dicyclohexyl carbodiimide in DMF; mixture of sulphated isomers | 0.08 A | 62% | – |
| unmodified porcine sodium insulin: unmodified porcine sodium insulin, starting material and comparator [reference compound] | – | – | 0.51 A |
| Example 4: porcine sodium insulin phosphorylated with concentrated phosphoric acid and DCC in DMF | – | 85% | – |

Reference: patent publication US4705845A, “Process for sulphation and phosphorylation of proteins and peptides” (Rockefeller University, priority 1986, dated 1987)
